1 molecule from patent US20220162313A1 (Xencor, published 2022) can be followed below.

This test deals with T1, human SSTR2 (human, UniProt P30874 1-369).
T1 construct: whole, on cells; also called human somatostatin receptor 2; cell surface human SSTR2
In words: flow cytometry on human SSTR2-transfected CHO cells, PE-labeled secondary antibody. As to the method:
Cell surface binding of anti-SSTR2 antibodies and exemplary anti-SSTR2×anti-CD3 bispecific antibodies were assessed using human SSTR2-transfected CHO cells. Cells were incubated with indicated test articles for 45 minutes on ice and centrifuged. Cells were resuspended with staining buffer containing phycoerythrin (PE) labeled secondary antibody (2 μg/mL; goat anti-human IgG) and then incubated for 45 minutes on ice. Cells were centrifuged twice and then resuspsended with staining buffer. Binding was measured by flow cytometry (FIGS. 17A-P).
Cell surface binding of XmAb18087 and control anti-RSV×anti-CD3 bispecific antibody (XENP13245) were assessed using humanSSTR2-transfected CHO cells and cynoSSTR2-transfected CHO cells. Cell surface binding was also assessed using parental CHO cells as control. Binding was measured by flow cytometry using phycoerythrin (PE) labeled secondary antibody as generally described in Example 1C.
(A flow cytometer gives signals particle by particle.)

T1 sequence (P30874 whole entry): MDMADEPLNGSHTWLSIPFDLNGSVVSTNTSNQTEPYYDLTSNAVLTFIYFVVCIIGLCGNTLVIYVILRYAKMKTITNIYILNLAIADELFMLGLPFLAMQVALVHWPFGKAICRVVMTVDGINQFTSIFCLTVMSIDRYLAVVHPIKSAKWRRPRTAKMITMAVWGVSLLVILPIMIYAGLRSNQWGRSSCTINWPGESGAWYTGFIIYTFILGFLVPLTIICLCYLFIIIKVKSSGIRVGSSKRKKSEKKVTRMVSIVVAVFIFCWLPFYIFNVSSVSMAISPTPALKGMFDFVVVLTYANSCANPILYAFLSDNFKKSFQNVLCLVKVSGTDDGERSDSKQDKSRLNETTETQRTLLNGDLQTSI

B1: XmAb18087 (bispecific antibody)
heavy: EVQLVESGGGLVQPGGSLRLSCAASGFTFSDYGMAWFRQAPGKGLEWVSFISNLGYSIYYADSVKGRFTISRDNAKNSLYLQMNSLRAEDTAVYYCARAPYDYDSFDPMDYWGQGTLVTVSSASTKGPSVFPLAPSSKSTSGGTAALGCLVKDYFPEPVTVSWNSGALTSGVHTFPAVLQSSGLYSLSSVVTVPSSSLGTQTYICNVNHKPSDTKVDKKVEPKSCDKTHTCPPCPAPPVAGPSVFLFPPKPKDTLMISRTPEVTCVVVDVKHEDPEVKFNWYVDGVEVHNAKTKPREEEYNSTYRVVSVLTVLHQDWLNGKEYKCKVSNKALPAPIEKTISKAKGQPREPQVYTLPPSREEMTKNQVSLTCDVSGFYPSDIAVEWESDGQPENNYKTTPPVLDSDGSFFLYSKLTVDKSRWEQGDVFSCSVMHEALHNHYTQKSLSLSPGK
chain: not shown
light: not shown
notes: also called XENP18087; XENP018087
Turning to B1, the binding result was “binds”.
